{"source": "the supplement of paper PMC9112550", "about": "“Optimization of the antimicrobial peptide Bac7 by deep mutational scanning” (BMC Biology, 2022);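 also: peptides expressed intracellularly from a pBAD plasmid library in pooled LB shake-flask culture, induced with 0.3% L-arabinose, DNA abundance read by NGS, three biological replicates, DESeq2 with apeglm shrinkage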", "data": [{"tested_on": "Escherichia coli TOP10", "assay": "shrunken log2 fold change of peptide-encoding DNA abundance (4.5 h post-induction vs induction); higher = less antimicrobial activity (less host growth inhibition)", "details": "time post-induction: 4.5 h; library: site-saturation at positions 5, 18, 19, 20", "values": [{"sequence": "RRIRGRPPRLPRPRPRPTMKPRP", "shrunken log2 fold change": 0.757}, {"sequence": "RRIRSRPPRLPRPRPRPDHHPRP", "shrunken log2 fold change": -0.868}, {"sequence": "RRIRERPPRLPRPRPRPSIHPRP", "shrunken log2 fold change": -0.147}, {"sequence": "RRIRRRPPRLPRPRPRPNLNPRP", "shrunken log2 fold change": -0.0389}, {"sequence": "RRIRPRPPRLPRPRPRPMNNPRP", "shrunken log2 fold change": -0.916}, {"sequence": "RRIRGRPPRLPRPRPRPTVNPRP", "shrunken log2 fold change": 0.597}, {"sequence": "RRIRDRPPRLPRPRPRPYPAPRP", "shrunken log2 fold change": -0.15}, {"sequence": "RRIRARPPRLPRPRPRPKNMPRP", "shrunken log2 fold change": -0.191}, {"sequence": "RRIRMRPPRLPRPRPRPCCFPRP", "shrunken log2 fold change": 0.116}, {"sequence": "RRIRDRPPRLPRPRPRPSPAPRP", "shrunken log2 fold change": 0.0515}, {"sequence": "RRIRFRPPRLPRPRPRPRLCPRP", "shrunken log2 fold change": 0.276}, {"sequence": "RRIRQRPPRLPRPRPRPNMVPRP", "shrunken log2 fold change": -0.0131}, {"sequence": "RRIRDRPPRLPRPRPRPRRRPRP", "shrunken log2 fold change": 0.736}, {"sequence": "RRIRVRPPRLPRPRPRPCCEPRP", "shrunken log2 fold change": -0.0815}, {"sequence": "RRIRRRPPRLPRPRPRPPEGPRP", "shrunken log2 fold change": 0.657}, {"sequence": "RRIRSRPPRLPRPRPRPTVVPRP", "shrunken log2 fold change": -0.112}, {"sequence": "RRIRPRPPRLPRPRPRPVDYPRP", "shrunken log2 fold change": 0.0307}, {"sequence": "RRIRVRPPRLPRPRPRPHDIPRP", "shrunken log2 fold change": 0.0663}, {"sequence": "RRIRCRPPRLPRPRPRPFRSPRP", "shrunken log2 fold change": -0.142}, {"sequence": "RRIRDRPPRLPRPRPRPFPLPRP", "shrunken log2 fold change": 0.0517}, {"sequence": "RRIRSRPPRLPRPRPRPYVQPRP", "shrunken log2 fold change": -0.024}, {"sequence": "RRIRRRPPRLPRPRPRPQVTPRP", "shrunken log2 fold change": -0.0275}, {"sequence": "RRIRLRPPRLPRPRPRPQTVPRP", "shrunken log2 fold change": -0.211}, {"sequence": "RRIRERPPRLPRPRPRPKSTPRP", "shrunken log2 fold change": -0.42}, {"sequence": "RRIRVRPPRLPRPRPRPCQKPRP", "shrunken log2 fold change": -0.0265}, {"sequence": "RRIRTRPPRLPRPRPRPRNPPRP", "shrunken log2 fold change": 0.000872}, {"sequence": "RRIRFRPPRLPRPRPRPANEPRP", "shrunken log2 fold change": 0.0451}, {"sequence": "RRIRPRPPRLPRPRPRPGKGPRP", "shrunken log2 fold change": 0.0267}, {"sequence": "RRIRKRPPRLPRPRPRPYQPPRP", "shrunken log2 fold change": -0.191}, {"sequence": "RRIRVRPPRLPRPRPRPEWLPRP", "shrunken log2 fold change": 0.0685}, {"sequence": "RRIRIRPPRLPRPRPRPENLPRP", "shrunken log2 fold change": -0.0595}, {"sequence": "RRIRARPPRLPRPRPRPPILPRP", "shrunken log2 fold change": -0.261}, {"sequence": "RRIRMRPPRLPRPRPRPVGRPRP", "shrunken log2 fold change": 0.724}, {"sequence": "RRIRRRPPRLPRPRPRPEYYPRP", "shrunken log2 fold change": -0.324}, {"sequence": "RRIRARPPRLPRPRPRPGQTPRP", "shrunken log2 fold change": 0.178}, {"sequence": "RRIRNRPPRLPRPRPRPLYAPRP", "shrunken log2 fold change": -0.0693}, {"sequence": "RRIRKRPPRLPRPRPRPFMTPRP", "shrunken log2 fold change": 0.168}, {"sequence": "RRIRIRPPRLPRPRPRPFIRPRP", "shrunken log2 fold change": -0.358}, {"sequence": "RRIRMRPPRLPRPRPRPHSQPRP", "shrunken log2 fold change": -0.00628}, {"sequence": "RRIRPRPPRLPRPRPRPFTDPRP", "shrunken log2 fold change": -0.247}, {"sequence": "RRIRMRPPRLPRPRPRPIPQPRP", "shrunken log2 fold change": 0.256}, {"sequence": "RRIRMRPPRLPRPRPRPQSMPRP", "shrunken log2 fold change": 0.143}, {"sequence": "RRIRVRPPRLPRPRPRPWQMPRP", "shrunken log2 fold change": -0.00669}, {"sequence": "RRIRFRPPRLPRPRPRPATMPRP", "shrunken log2 fold change": -0.0804}, {"sequence": "RRIRIRPPRLPRPRPRPKFKPRP", "shrunken log2 fold change": -0.0251}, {"sequence": "RRIRMRPPRLPRPRPRPDNTPRP", "shrunken log2 fold change": 0.28}, {"sequence": "RRIRTRPPRLPRPRPRPNYWPRP", "shrunken log2 fold change": -0.208}, {"sequence": "RRIRKRPPRLPRPRPRPWPCPRP", "shrunken log2 fold change": 0.161}, {"sequence": "RRIRFRPPRLPRPRPRPPLRPRP", "shrunken log2 fold change": 0.373}, {"sequence": "RRIRCRPPRLPRPRPRPMWIPRP", "shrunken log2 fold change": 0.085}, {"sequence": "RRIRKRPPRLPRPRPRPFGHPRP", "shrunken log2 fold change": -0.00208}, {"sequence": "RRIRRRPPRLPRPRPRPHQHPRP", "shrunken log2 fold change": 0.0389}, {"sequence": "RRIRRRPPRLPRPRPRPLKYPRP", "shrunken log2 fold change": 0.0102}, {"sequence": "RRIRRRPPRLPRPRPRPHETPRP", "shrunken log2 fold change": 1.07}, {"sequence": "RRIRHRPPRLPRPRPRPERHPRP", "shrunken log2 fold change": 0.0281}, {"sequence": "RRIRDRPPRLPRPRPRPFLRPRP", "shrunken log2 fold change": 0.00895}, {"sequence": "RRIRNRPPRLPRPRPRPMCLPRP", "shrunken log2 fold change": -0.0215}, {"sequence": "RRIRWRPPRLPRPRPRPWAKPRP", "shrunken log2 fold change": 0.279}, {"sequence": "RRIRIRPPRLPRPRPRPQHYPRP", "shrunken log2 fold change": -1.3}, {"sequence": "RRIRGRPPRLPRPRPRPKDCPRP", "shrunken log2 fold change": 0.427}, {"sequence": "RRIRCRPPRLPRPRPRPVFGPRP", "shrunken log2 fold change": -0.0365}, {"sequence": "RRIRQRPPRLPRPRPRPFTHPRP", "shrunken log2 fold change": -0.0618}, {"sequence": "RRIRSRPPRLPRPRPRPTAGPRP", "shrunken log2 fold change": 0.679}, {"sequence": "RRIRLRPPRLPRPRPRPRTGPRP", "shrunken log2 fold change": 0.321}, {"sequence": "RRIRDRPPRLPRPRPRPQMEPRP", "shrunken log2 fold change": 0.00785}, {"sequence": "RRIRPRPPRLPRPRPRPHHGPRP", "shrunken log2 fold change": 0.0245}, {"sequence": "RRIRYRPPRLPRPRPRPSMLPRP", "shrunken log2 fold change": -1.07}, {"sequence": "RRIRIRPPRLPRPRPRPPNAPRP", "shrunken log2 fold change": -0.0573}, {"sequence": "RRIRWRPPRLPRPRPRPSVIPRP", "shrunken log2 fold change": -0.272}, {"sequence": "RRIRHRPPRLPRPRPRPGSRPRP", "shrunken log2 fold change": -0.168}, {"sequence": "RRIRLRPPRLPRPRPRPEAMPRP", "shrunken log2 fold change": 0.284}, {"sequence": "RRIRSRPPRLPRPRPRPSVWPRP", "shrunken log2 fold change": 0.0903}, {"sequence": "RRIRWRPPRLPRPRPRPWWWPRP", "shrunken log2 fold change": 0.12}, {"sequence": "RRIRRRPPRLPRPRPRPEHEPRP", "shrunken log2 fold change": 0.0952}, {"sequence": "RRIRSRPPRLPRPRPRPFQTPRP", "shrunken log2 fold change": -0.266}]}]}
